Measurements from article PMC12325741 (2025).
Like-named read-outs stand apart in the source and are kept apart here.

T1: CK19 (ligand protein of the Biacore assay) (UniProt P08727 1-400)
T1 chain: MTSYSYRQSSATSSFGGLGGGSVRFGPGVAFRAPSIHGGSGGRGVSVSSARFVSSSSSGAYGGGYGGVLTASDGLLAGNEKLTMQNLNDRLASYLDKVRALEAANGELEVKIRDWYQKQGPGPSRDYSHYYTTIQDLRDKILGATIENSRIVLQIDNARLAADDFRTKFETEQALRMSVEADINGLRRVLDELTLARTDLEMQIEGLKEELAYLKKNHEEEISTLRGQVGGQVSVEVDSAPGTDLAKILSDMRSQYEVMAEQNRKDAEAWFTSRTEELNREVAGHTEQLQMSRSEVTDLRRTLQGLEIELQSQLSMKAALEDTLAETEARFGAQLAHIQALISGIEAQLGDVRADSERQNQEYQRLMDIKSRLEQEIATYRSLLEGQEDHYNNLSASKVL


Assays:
Assay in all cases: SPR
[1] = target: T1, CK19 (ligand protein of the Biacore …)
[2] = target: T1, CK19 (ligand protein of the Biacore …)
[3] = target: T1, CK19 (ligand protein of the Biacore …)
[4] = target: T1, CK19 (ligand protein of the Biacore …)

koff [1] [s⁻¹]	Kd [2] [nM]	koff [3] [s⁻¹]	Kd [4] [nM]	Binder
0.0117	214			MANF (analyte of the Biacore assay) (natural protein) LRPGDCEVCISYLGRFYQDLKDRDVTFSPATIENELIKFCREARGKENRLCYYIGATDDAATKIINEVSKPLAHHIPVEKICEKLKKKDSQICELKYDKQIDLSTVDLKKLRVKELKKILDDWGETCKGCAEKSDYIRKINELMPKYAPKAASARTDL
		0.0854	635	NICD2-His (domain or fragment) VIMAKRKRKHGSLWLPEGFTLRRDASNHKRREPVGQDAVGLKNLSVQVSEANLIGTGTSEHWVDDEGPQPKKVKAEDEALLSEEDDPIDRRPWTQQHLEAADIRRTPSLALTPPQAEQEVDVLDVNVRGPDGCTPLMLASLRGGSSDLSDEDEDAEDSSANIITDLVYQGASLQAQTDRTGEMALHLAARYSRADAAKRLLDAGADANAQDNMGRCPLHAAVAADAQGVFQILIRNRVTDLDARMNDGTTPLILAARLAVEGMVAELINCQADVNAVDDHGKSALHWAAAVNNVEATLLLLKNGANRDMQDNKEETPLFLAAREGSYEAAKILLDHFANRDITDHMDRLPRDVARDRMHHDIVRLLDEYNVTPSPPGTVLTSALSPVICGPNRSFLSLKHTPMGKKSRRPSAKSTMPTSLPNLAKEAKDAKGSRRKKSLSEKVQLSESSVTLSPVDSLESPHTYVSDTTSSPMITSPGILQASPNPMLATAAPPAPVHAQHALSFSNLHEMQPLAHGASTVLPSVSQLLSHHHIVSPGSGSAGSLSRLHPVPVPADWMNRMEVNETQYNEMFGMVLAPAEGTHPGIAPQSRPPEGKHITTPREPLPPIVTFQLIPKGSIAQPAGAPQPQSTCPPAVAGPLPTMYQIPEMARLPSVAFPTAMMPQQDGQVAQTILPAYHPFPASVGKYPTPPSQHSYASSNAAERTPSHSGHLQGEHPYLTPSPESPDQWSSSSPHSASDWSDVTTSPTPGGAGGGQRGPGTHMSEPPHNNMQVYA
